From the Human Domainome abundance scans (Beltran et al. 2025)
± gives the uncertainty stated by the source.

B1: Chromodomain-helicase-DNA-binding protein 5, residues 338 to 390; numbered along this chain, Q8TDI0 (parent)
chain: YETDHQDYCEVCQQGGEIILCDTCPRAYHLVCLDPELEKAPEGKWSCPHCEKE

Variants of: B1
Test: abundance fitness (aPCA) (normalised: wild type 0, dead -1); higher = more abundant; growth selection in yeast, the domain comes from the species named
Conditions: Homo sapiens

Variant | abundance fitness
V31W | -0.566 ± 0.16
V31Q | -0.315 ± 0.19
V31E | 0.257 ± 0.12
V31P | 0.106 ± 0.16
V31S | -0.145 ± 0.12
V31N | -0.193 ± 0.21
V31C | -0.325 ± 0.2
V31R | -0.27 ± 0.11
V31A | -0.046 ± 0.11
V31Y | -0.368 ± 0.2
V31H | 0.018 ± 0.21
V31F | 0.047 ± 0.15
V31I | -0.205 ± 0.13
V31M | -0.383 ± 0.17
V31K | -0.314 ± 0.17
V31D | -0.157 ± 0.17
V31T | -0.023 ± 0.14
V31L | -0.104 ± 0.097
V31G | 0.069 ± 0.1
L37F | -0.147 ± 0.35
L37P | -0.085 ± 0.15
L37T | 0.101 ± 0.13
L37C | -0.094 ± 0.16
L37N | -0.102 ± 0.31

Variant | abundance fitness
L37M | -0.152 ± 0.16
L37H | -0.069 ± 0.33
L37K | -0.04 ± 0.2
L37Y | -0.237 ± 0.26
L37W | -0.496 ± 0.13
L37G | 0.032 ± 0.11
L37R | 0.115 ± 0.095
L37S | 0.211 ± 0.11
L37V | -0.026 ± 0.11
L37E | -0.566 ± 0.18
K39A | -0.081 ± 0.11
K39D | -0.208 ± 0.15
K39E | -0.096 ± 0.13
K39C | -0.358 ± 0.21
K39F | -0.315 ± 0.23
K39S | -0.251 ± 0.15
K39M | 0.191 ± 0.2
K39I | -0.045 ± 0.24
K39G | 0.03 ± 0.089
K39L | -0.002 ± 0.14
K39Q | -0.232 ± 0.3
K39P | -0.091 ± 0.19
C32D | -0.806 ± 0.27
C32H | -0.765 ± 0.32

Variant | abundance fitness
C32R | -0.94 ± 0.13
C32Q | -0.982 ± 0.23
C32T | -1.02 ± 0.2
C32A | -1 ± 0.18
C32L | -0.993 ± 0.14
C32I | -0.786 ± 0.3
C32K | -1.03 ± 0.26
C32N | -0.579 ± 0.29
C32V | -0.618 ± 0.14
C32M | -0.926 ± 0.2
C32E | -0.52 ± 0.16
C32Y | -0.777 ± 0.15
C32P | -0.885 ± 0.2
C32G | -0.969 ± 0.14
P35R | -0.096 ± 0.12
P35H | -0.524 ± 0.34
P35N | -0.211 ± 0.23
P35C | -0.313 ± 0.21
P35G | 0.181 ± 0.11
P35F | -0.915 ± 0.33
P35M | 0.121 ± 0.13
P35Y | 0.027 ± 0.24
P35E | 0.001 ± 0.12
P35W | -0.428 ± 0.19

Variant | abundance fitness
P35V | 0.03 ± 0.096
P35K | 0.082 ± 0.15
P35S | -0.057 ± 0.11
P35I | -0.209 ± 0.21
P35L | -0.078 ± 0.097
P35Q | -0.058 ± 0.15
P35T | 0.069 ± 0.13
L33N | -0.311 ± 0.17
L33R | -0.281 ± 0.11
L33W | 0.032 ± 0.13
L33S | 0.176 ± 0.12
L33V | -0.034 ± 0.097
L33Y | 0.064 ± 0.17
L33P | -0.223 ± 0.15
L33T | 0.163 ± 0.13
L33C | -0.272 ± 0.16
L33E | -0.414 ± 0.11
L33I | -0.235 ± 0.21
L33F | -0.013 ± 0.18
L33G | -0.389 ± 0.12
L33M | 0.185 ± 0.12
L33H | 0.046 ± 0.22
L33A | -0.085 ± 0.11
D34A | 0.052 ± 0.12

Variant | abundance fitness
D34G | -0.167 ± 0.13
D34H | 0.039 ± 0.18
D34W | -0.516 ± 0.18
D34N | -0.354 ± 0.2
D34V | -0.14 ± 0.1
D34L | -0.201 ± 0.11
D34E | 0.266 ± 0.15
D34C | -0.161 ± 0.18
D34R | -0.125 ± 0.11
D34Y | -0.269 ± 0.25
D34I | -0.313 ± 0.24
D34F | -0.058 ± 0.16
D34T | -0.195 ± 0.2
D34K | -0.347 ± 0.24
D34M | -0.403 ± 0.19
D34P | -0.15 ± 0.21
D34S | 0.093 ± 0.13
D34Q | -0.098 ± 0.17
L30F | -0.063 ± 0.16
L30K | 0.04 ± 0.18
L30Q | 0.107 ± 0.16
L30C | -0.096 ± 0.18
L30M | 0.095 ± 0.087
L30T | -0.222 ± 0.14

Variant | abundance fitness
L30R | 0.085 ± 0.11
L30Y | 0.193 ± 0.28
L30A | 0.094 ± 0.1
L30W | -0.036 ± 0.13
L30G | 0.092 ± 0.096
L30V | -0.135 ± 0.093
L30H | -0.194 ± 0.26
L30S | -0.06 ± 0.11
L30N | -0.047 ± 0.19
L30D | -0.206 ± 0.23
L30E | 0.059 ± 0.12
L30P | -0.414 ± 0.2
L30I | -0.703 ± 0.33
E36V | 0.205 ± 0.12
E36G | 0.014 ± 0.11
E36S | -0.163 ± 0.13
E36D | 0.139 ± 0.16
E36Y | -0.35 ± 0.15
E36N | -0.166 ± 0.19
E36I | -0.057 ± 0.24
E36H | -0.18 ± 0.14
E36L | -0.093 ± 0.11
E36W | -0.321 ± 0.14
E36C | -0.067 ± 0.17

Variant | abundance fitness
E36K | 0.093 ± 0.17
E36M | 0.069 ± 0.16
E36Q | 0.046 ± 0.13
E36A | -0.033 ± 0.12
E36T | -0.042 ± 0.15
E36F | -0.237 ± 0.19
E36P | 0.087 ± 0.13
E38I | -0.294 ± 0.24
E38Q | -0.008 ± 0.15
E38K | -0.199 ± 0.22
E38R | -0.147 ± 0.1
E38C | -0.221 ± 0.17
E38N | -0.271 ± 0.26
E38L | -0.115 ± 0.13
E38H | -0.207 ± 0.2
E38A | -0.024 ± 0.13
E38F | -0.053 ± 0.17
E38W | -0.127 ± 0.15
E38P | 0.188 ± 0.15
E38M | 0.042 ± 0.16
E38S | -0.225 ± 0.14
E38T | -0.252 ± 0.17
E38V | -0.157 ± 0.12
